Publication PMC7322680 (Biochemistry and Biophysics Reports, 2020)
“And” between values parts separate entries of the source, which are not always exact repeats. Identical values can stand only once.

Experiments:
SEC-MALS = target: the molecule itself; assay: SEC-MALS
SEC = target: the molecule itself; assay: SEC

B1: human podocin domain (residues 126-350) (domain or fragment, UniProt Q9NP85 126-350, looked up)
chain: KVVQEYERVIIFRLGHLLPGRAKGPGLFFFLPCLDTYHKVDLRLQTLEIPFHEIVTKDMFIMEIDAICYYRMENASLLLSSLAHVSKAVQFLVQTTMKRLLAHRSLTEILLERKSIAQDAKVALDSVTCIWGIKVERIEIKDVRLPAGLQHSLAVEAEAQRQAKVRMIAAEAEKAASESLRMAAEILSGTPAAVQLRYLHTLQSLSTEKPSTVVLPLPFDLLNCL
- stoichiometry N (SEC-MALS): ~16 and 25 and 13
- stoichiometry N (SEC): 16
